B1: TPR 5TU (parent)
chain: GGAUCUUCUCGAUCUAACAAAAAAGACAAAUCUGCCACAAAGCUUGAGAGCAUCUUCGGAUGCAGAGGCGGCAGCCUUCGGUGGCGCGAUAGCGCCAACGUUCUCAACUAUGACACGCAAAACGCGUGCUCCGUUGAAUGGAGUUUAUCAUG

Variants at the floor of the assay were thinned out.

Data on 19 variants can be found in the RNAGym collection of RNA variant scans (doi:10.1073/pnas.2313332121).

The data set covers variants of B1. The data set is described as follows: polymerase ribozyme fitness, log enrichment relative to wild type (log ratio); higher = more active; in vitro selection for triplet polymerase activity. In short, it runs like this:
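Libraries of mutants in each subunit of a heterodimeric triplet polymerase ribozyme were generated by PCR and transcribed. In triplicate, each went through one in vitro selection round: annealing with biotinylated primer, partner subunit and triplets; frozen incubation at −7 °C; gel excision of extended constructs; streptavidin-bead capture; RT-PCR. Fitness, taken from Illumina sequencing of input and output libraries, is the logarithm of a genotype's enrichment over wild-type enrichment, averaged across replicates with inverse-variance weights. The logarithm is base 2, and genotypes needed ≥10 input reads and ≥1 read per output to be kept.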
Turning to GGAUCUUCUCGAUCUAACAUAAAAGACAAAUCUGCCACAAAGCUUGAGAGCAUCAUCGGAUGCAGAGGCGGCAGCCUUCGGUGGCGCGAUAGCGCCAACGUUCUCAACUAUGACACGCAAAACGCGUGCUCCGUUGAAUGGAGUUUCUCAUG, the “polymerase ribozyme fitness (log ratio)” value is -2.31. Take GGAUCUUCUCGAUCUAACAACAUUGACAAAUCUGCCACAAAGCUUGAGAGCAUCUUCGGAUGCAGAGGCGGCAGCCUUCGGUGGCGCGAUAACGCCAACGUUCUCGACUAUGACACGCAAAACGCGUGCUCCAUUGAAUGGAGUUUAUCAUG: the “polymerase ribozyme fitness (log ratio)” value was not above -4.2. The result for GGAUCUUCUCGAUCUAACAUAAAAGACAAAUCUGCCACAAAGCUUGAGAGCAUCUUCGGAUGCAGAGGCGGCAGCCUUCGGAGGCGCGAUAGUGCCAACGUUCUCAACUAUGACACGCAAAACGCGUGCUCCGUUGAAUGGAGUGUAUCAUG reads -2.69.

With GGAUCUUCUCGAUCUAACAUAAAAGACAAACCUGCCACAACGCUUGAGAGAAUCUUCGGAUGCAGAGGCGGCAGCCUUCGGUGGCGCGAUAGCGCCAACGUUCUCAACUAUGACACGCAAAACGCGUGCUCCGUUGAAUGGAGUUUAUCAUG, the “polymerase ribozyme fitness (log ratio)” value is -2.21. For GGAUCUUCUCGAUCUAACAUAAAAGACAAAUCAGCCACAAAGCUUGAGAGCAUCUUCGGAUGCAGAGGCGGCAGCCUUCGGUAGCACGAUAGCGCCAACAUUCUCAACUAUGACACGCAAAACGCGUGCUCCGUUGAAUGGAGUUUAUUAUG the value was not above -4.2; for GGAUCUUCUCGAUCUAACAUAAAAGACAAAUCUGCCACAAAGCUUGAGAGCAUCUACGGAUGCCGAGGCGGCAGCCUUCGGUGGCGCGAUAGCGCCAACGUUCUCAGCUAUGACACGCAAAACGCUUGCUCCGUUGAAUGGAGUUUAUCAUG, not above -4.2; for GGAUCUUCUCGAUCUAACAUAAAAGACAAAUCUGCCACAAAGCUUGAGAGCAUCUUCGGAUGCAGAGGCGGCAGCCUUCGGUCGCGCGAUAACGCCAACGUUCUCAACUAUGACACGCAAAACGCGAUCUCCGUUGAAUGGAGUUUAUCAUG, not above -4.2.

On to GGAUCUUCUCGAUCUAACAUAAAAGACAAAUCUGCCACAAAGCUAGAGAGCAUCUUCGGAUGCAGAGGCGGCAGCCUUCGGUGGCGGGAUAGCGCCAACGUUCUCAACUAUGACACGCAAAACGCGUGCUCCGUUGAAUGGAGUUUAUCAUG, for which the “polymerase ribozyme fitness (log ratio)” value is -4.13.

As to GGAUCUUCUCGAUCUAACAUAAAAGACAAAUCUGCCACAAAGCUUGAGAGCAUCUUCGGAAGCAGAGGCGGAAGUCUUCGGUGGCGCGAUAGGGCCAAAGUUCUCAACUAUGACACGCAAAACGCGUGCUGCGUUGAAUGGAGUUUAUCAUG, the “polymerase ribozyme fitness (log ratio)” value is not above -4.2. The result for GGAUCUUCUCGAUCUAACAUAAAAGACAAAUCUGCCACAAAGCUUGAGAGCAUCUGCGGAUGCAAAGGCGGCAGCUUUCGGUGGAGCGAUAGCGCCAACGUUCUCAACUAUGACACGCAAAACGCGUGCUCCGUUGAAUGCAGUUUACCAUG reads not above -4.2. The result for GGAUCUUCUCGAUCUAACAUAAAAGACAAAUCUGCCACAAAGCUUGAGAGCAACUUCGGAUGCAGAGGCGGCAGCCUUCGGUGGCGCGAUAGCGCCAACGUUCUCAACUAUGACACGCAAAACGCGUGCUCCGUUGAAUGGAGUUUAUCAUG reads -2.36. Consider GGAUCUUCUCGAUCUAACAUAAAAGACAAAUCUGCCACAAAGCUUGAGAGCAUCAUCGGAUGCAGAGUCGGCAGCCUUCGGUGGGGCGAUAGCGCCAACGUUCUUAACUAUGACACGCAAAACACGUGCUCCGUUGAAUCGAGUUUAUCAUG, for which the “polymerase ribozyme fitness (log ratio)” value is not above -4.2.

Consider GGAUCUUCUCGAUCUAACAUAAAAGACAAAUCUGCCACAAAGCUUGAGAGCAUCUUCGGAUGCAGAGGCGGCAGCCUUCGGUGGCGCGAUAGCACCAACGUUCUCAACUAUGACACGCAAAACGCGUGCUCCGUUGAAUGGAGUUUAUCAUG, for which the “polymerase ribozyme fitness (log ratio)” value was -1.88. For GGAUCUUCUCGAUCUAACAUAAAAGACAAAUCUGCCACAAAGCUUGAGAGCAUCUUCGGAUGCAGAGGCGGCAGCCUUCGGUGGCGCGAUAGCGCCAACGAUCUCAACUAUGACACGCAAAACGCGUGCUCCGUUGAAUGGAGUUUAUCAUG the value was -2.4.

For the variant GGAUCUUCUCGAUCUAACAUAAAAGACAAAUCUGCCACAAAGCUUGAGAGCAUCUUCGGAUGCAGAGGCGGCAGCCUUCGGUGGCGCGAUAACGCCAACGUUCUCAACUAUGACACGCAAUACGCGUGCUCCGUUGAAUGCAGUUUAUCAUG, the “polymerase ribozyme fitness (log ratio)” value was -4.03. The result for GGAUCUUCUCGAUCUAACAUAAAAGACAAAUCUGCCACAAAGCUUGAGAGCAUCUUCGGAUGCAGAGGCGGCAGCCUUCGGGGGCGCGAUAGUGCCAACGUUCUCAACUAUGACACGCAAAACGCGUGCUCCGUUGAAUGGAGUUUAUCAUG reads -2.36. For GGAUCUUCUCGAUCUAACAUAAAAGACAAAUCUGCCACAAAGCUUGAGAGCAACAUCGGAUGCAGAGGCGGCAGCCUUCGGUGGCGCGAUAGCGCCAACGUUCUCAACUAUGACACGGAAAACGCGUGCUCCGUUGAAUGGAGUUUAUCAUG the value was -3.98; for GGAUCUUCUCGAUCUAACAUAAAAGACAAAUCUGCCACAAAGCUUGAGAGCAUCUACGGAUGCAGAGGCGGCGGCCUUCGGUGGCGCGAUAGCACCAACGAUCUCAACUAUGACACGCAAAACGCGUGCUCCGUUGAAUGGAGUUUAUCAUG, -2.45.

With GGAUCUUCUCGAUCUAACAUAAAAGACAAAGCUGCCACAAAGGUUGAGAGCUUCUUCGGAUGCAGAGGCGGCCGCCUUCGGUGGCGCGAUAGUUCCAACGUUCUCAACUAUGACAGGCAAGACGCGUGCUCCGUUGAAUGGAGUUUAUUAUG, the “polymerase ribozyme fitness (log ratio)” value was not above -4.2.
